From EP2345737A1 (Harant, Hanna, dated 2011)
Bridges are numbered along the chain shown (N, C = ends). Where no end group is shown, it is not given here.

T1: VEGF-A truncated nascent chain (amino-terminal 52 amino acid residues of human VEGF-A plus six histidine … (human))
T1 construct: Translated in vitro in wheat germ lysate without stop codon; also called short VEGF-A nascent chains; bait polypeptide
T1 chain: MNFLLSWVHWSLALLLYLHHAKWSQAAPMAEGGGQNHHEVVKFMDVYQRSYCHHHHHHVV

T2: VEGF-A truncated nascent chain (52 amino-terminal residues of VEGF-A plus His6 and two valines) translated in … (human, ε-labelled biotinylated lysine incorporated from Transcend tRNA (positions not stated))
T2 construct: in one setting the ribosomes were dissociated with RNAse ONE before elution; also called VEGF-A nascent chains; VEGF-A-translating ribosomes
T2 chain: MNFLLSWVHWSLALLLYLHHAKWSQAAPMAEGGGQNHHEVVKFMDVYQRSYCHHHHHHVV


What was measured:
[1] = biological target: T1, VEGF-A truncated nascent chain …; assay: phage panning by co-sedimentation with ribosome-bound nascent chain, with subtraction on non-translating ribosomes; selection only
[2] = biological target: T1, VEGF-A truncated nascent chain …; assay: phage panning, released His-tagged nascent chain on Ni-NTA beads, DTT elution; selection only
[3] = biological target: T2, VEGF-A truncated nascent chain (52 …); assay: phage panning, biotinylated ribosome-bound nascent chain in streptavidin wells; selection only

| Binder | binding result [3] | other results |
| --- | --- | --- |
| CPLHARLPC (disulfide 1-9, From the Ph.D.-C7C library; on phage; not shown: M13 pIII minor coat protein, peptide at its amino-terminus) [PLHARLP (SEQ ID NO:1), displayed on M13 phage] | – | binding result [1]: binds |
| CLTRPSPSC (disulfide 1-9; not fully specified, From the Ph.D.-C7C library; on phage; not shown: M13 pIII minor coat protein, peptide at its amino-terminus) [LTRPSPS (SEQ ID NO:10), displayed on M13 phage] | – | binding result [2]: binds |
| CSPSLLPAC (disulfide 1-9, From the Ph.D.-C7C library; on phage; not shown: M13 pIII minor coat protein, peptide at its amino-terminus) [SPSLLPA (SEQ ID NO:11), displayed on M13 phage] | – | binding result [2]: binds |
| CSSPLLGRC (disulfide 1-9, From the Ph.D.-C7C library; on phage; not shown: M13 pIII minor coat protein, peptide at its amino-terminus) [SSPLLGR (SEQ ID NO:12), displayed on M13 phage] | – | binding result [2]: binds |
| CPVAPSTHC (disulfide 1-9, From the Ph.D.-C7C library; on phage; not shown: M13 pIII minor coat protein, peptide at its amino-terminus) [PVAPSTH (SEQ ID NO:13), displayed on M13 phage] | – | binding result [2]: binds |
| CLGALSHTC (disulfide 1-9; not fully specified, From the Ph.D.-C7C library; on phage; not shown: M13 pIII minor coat protein, peptide at its amino-terminus) [LGALSHT (SEQ ID NO:14), displayed on M13 phage] | – | binding result [2]: binds |
| CSPRPSLSC (disulfide 1-9, From the Ph.D.-C7C library; on phage; not shown: M13 pIII minor coat protein, peptide at its amino-terminus) [SPRPSLS (SEQ ID NO:15), displayed on M13 phage] | – | binding result [2]: binds |
| CPANFGPSC (disulfide 1-9, From the Ph.D.-C7C library; on phage; not shown: M13 pIII minor coat protein, peptide at its amino-terminus) [PANFGPS (SEQ ID NO: 16), displayed on M13 phage] | binds | – |
| CLTLPNRTC (disulfide 1-9; not fully specified, From the Ph.D.-C7C library; on phage; not shown: M13 pIII minor coat protein, peptide at its amino-terminus) [LTLPNRT (SEQ ID NO: 17), displayed on M13 phage] | binds | – |
| CAFPGMKAC (disulfide 1-9; not fully specified, From the Ph.D.-C7C library; on phage; not shown: M13 pIII minor coat protein, peptide at its amino-terminus) [AFPGMKA (SEQ ID NO: 18), displayed on M13 phage] | binds | – |
| CLPPLQRLC (disulfide 1-9; not fully specified, From the Ph.D.-C7C library; on phage; not shown: M13 pIII minor coat protein, peptide at its amino-terminus) [LPPLQRL (SEQ ID NO: 19), displayed on M13 phage] | binds | – |
| CFLFRLFC (disulfide 1-8; not fully specified, From the Ph.D.-C7C library; on phage; A hexapeptide; not shown: M13 pIII minor coat protein, peptide at its amino-terminus) [FLFRLF (SEQ ID NO:2), displayed on M13 phage] | – | binding result [2]: binds |
| CPPPFLPLC (disulfide 1-9, From the Ph.D.-C7C library; on phage; not shown: M13 pIII minor coat protein, peptide at its amino-terminus) [PPPFLPL (SEQ ID NO: 20), displayed on M13 phage] | binds | – |
| CEIRTPSVC (disulfide 1-9; not fully specified, From the Ph.D.-C7C library; on phage; not shown: M13 pIII minor coat protein, peptide at its amino-terminus) [EIRTPSV (SEQ ID NO: 21), displayed on M13 phage] | binds | – |
| CHAWTFNSC (disulfide 1-9; not fully specified, From the Ph.D.-C7C library; on phage; not shown: M13 pIII minor coat protein, peptide at its amino-terminus) [HAWTFNS (SEQ ID NO: 22), displayed on M13 phage] | binds | – |
| CSYPLRPPC (disulfide 1-9; also: displayed on M13 phage, fused to pIII, From the Ph.D.-C7C library; on phage; not shown: M13 pIII minor coat protein, peptide at its amino-terminus) [SYPLRPP (SEQ ID NO: 23), displayed on M13 phage] | binds | – |
| CLPVSSSSC (disulfide 1-9; not fully specified, From the Ph.D.-C7C library; on phage; not shown: M13 pIII minor coat protein, peptide at its amino-terminus) [LPVSSSS (SEQ ID NO: 24), displayed on M13 phage] | binds | – |
| CLALSAARC (disulfide 1-9; not fully specified, From the Ph.D.-C7C library; on phage; not shown: M13 pIII minor coat protein, peptide at its amino-terminus) [LALSAAR (SEQ ID NO: 25), displayed on M13 phage] | binds | – |
| CSLNSDLFC (disulfide 1-9, From the Ph.D.-C7C library; on phage; not shown: M13 pIII minor coat protein, peptide at its amino-terminus) [SLNSDLF (SEQ ID NO: 26), displayed on M13 phage] | binds | – |
| CSPHLIPSC (disulfide 1-9, From the Ph.D.-C7C library; on phage; not shown: M13 pIII minor coat protein, peptide at its amino-terminus) [SPHLIPS (SEQ ID NO: 27), displayed on M13 phage] | binds | – |
| CHPMFPLSC (disulfide 1-9; not fully specified, From the Ph.D.-C7C library; on phage; not shown: M13 pIII minor coat protein, peptide at its amino-terminus) [HPMFPLS (SEQ ID NO: 28), displayed on M13 phage] | binds | – |
| CHPMFWPIC (disulfide 1-9; not fully specified, From the Ph.D.-C7C library; on phage; not shown: M13 pIII minor coat protein, peptide at its amino-terminus) [HPMFWPI (SEQ ID NO: 29), displayed on M13 phage] | binds | – |
| CPMTSPPSC (disulfide 1-9, From the Ph.D.-C7C library; on phage; not shown: M13 pIII minor coat protein, peptide at its amino-terminus) [PMTSPPS (SEQ ID NO:3), displayed on M13 phage] | – | binding result [2]: binds |
| CWASQAHPC (disulfide 1-9; also: displayed on M13 phage, fused to pIII, From the Ph.D.-C7C library; on phage; not shown: M13 pIII minor coat protein, peptide at its amino-terminus) [WASQAHP (SEQ ID NO: 30), displayed on M13 phage] | binds | – |

| Binder | binding result [3] | other results |
| --- | --- | --- |
| CSSTLHPSC (disulfide 1-9; also: displayed on M13 phage, fused to pIII, From the Ph.D.-C7C library; on phage; not shown: M13 pIII minor coat protein, peptide at its amino-terminus) [SSTLHPS (SEQ ID NO: 31), displayed on M13 phage] | binds | – |
| CHALSSRTC (disulfide 1-9; not fully specified, From the Ph.D.-C7C library; on phage; not shown: M13 pIII minor coat protein, peptide at its amino-terminus) [HALSSRT (SEQ ID NO: 32), displayed on M13 phage] | binds | – |
| CPHTRGFMC (disulfide 1-9, From the Ph.D.-C7C library; on phage; not shown: M13 pIII minor coat protein, peptide at its amino-terminus) [PHTRGFM (SEQ ID NO: 33), displayed on M13 phage] | binds | – |
| CSPSTSSRC (disulfide 1-9, From the Ph.D.-C7C library; on phage; not shown: M13 pIII minor coat protein, peptide at its amino-terminus) [SPSTSSR (SEQ ID NO: 34), displayed on M13 phage] | binds | – |
| CTLSHTRTC (disulfide 1-9; also: displayed on M13 phage, fused to pIII, From the Ph.D.-C7C library; on phage; not shown: M13 pIII minor coat protein, peptide at its amino-terminus) [TLSHTRT (SEQ ID NO: 35), displayed on M13 phage] | binds | – |
| CFPATAASC (disulfide 1-9; not fully specified, From the Ph.D.-C7C library; on phage; not shown: M13 pIII minor coat protein, peptide at its amino-terminus) [FPATAAS (SEQ ID NO: 36), displayed on M13 phage] | binds | – |
| CEPASSRHC (disulfide 1-9; not fully specified, From the Ph.D.-C7C library; on phage; not shown: M13 pIII minor coat protein, peptide at its amino-terminus) [EPASSRH (SEQ ID NO: 37), displayed on M13 phage] | binds | – |
| CNPISLHLC (disulfide 1-9, From the Ph.D.-C7C library; on phage; not shown: M13 pIII minor coat protein, peptide at its amino-terminus) [NPISLHL (SEQ ID NO:4), displayed on M13 phage] | – | binding result [2]: binds |
| CDYPWPLPC (disulfide 1-9; not fully specified, From the Ph.D.-C7C library; on phage; not shown: M13 pIII minor coat protein, peptide at its amino-terminus) [DYPWPLP (SEQ ID NO: 40), displayed on M13 phage] | binds | – |
| CPLHPPQPC (disulfide 1-9, From the Ph.D.-C7C library; on phage; not shown: M13 pIII minor coat protein, peptide at its amino-terminus) [PLHPPQP (SEQ ID NO: 41), displayed on M13 phage] | binds | – |
| CLPRPLHSC (disulfide 1-9; not fully specified, From the Ph.D.-C7C library; on phage; not shown: M13 pIII minor coat protein, peptide at its amino-terminus) [LPRPLHS (SEQ ID NO: 42), displayed on M13 phage] | binds | – |
| CVSGSSPQC (disulfide 1-9; also: displayed on M13 phage, fused to pIII, From the Ph.D.-C7C library; on phage; not shown: M13 pIII minor coat protein, peptide at its amino-terminus) [VSGSSPQ (SEQ ID NO: 43), displayed on M13 phage] | binds | – |
| CPSLFPSMC (disulfide 1-9, From the Ph.D.-C7C library; on phage; not shown: M13 pIII minor coat protein, peptide at its amino-terminus) [PSLFPSM (SEQ ID NO: 44), displayed on M13 phage] | binds | – |
| CEASSSRAC (disulfide 1-9; not fully specified, From the Ph.D.-C7C library; on phage; not shown: M13 pIII minor coat protein, peptide at its amino-terminus) [EASSSRA (SEQ ID NO: 45), displayed on M13 phage] | binds | – |
| CSRSALESC (disulfide 1-9, From the Ph.D.-C7C library; on phage; not shown: M13 pIII minor coat protein, peptide at its amino-terminus) [SRSALES (SEQ ID NO: 46), displayed on M13 phage] | binds | – |
| CPSALAFYC (disulfide 1-9, From the Ph.D.-C7C library; on phage; not shown: M13 pIII minor coat protein, peptide at its amino-terminus) [PSALAFY (SEQ ID NO: 47), displayed on M13 phage] | binds | – |
| CNASRTTLC (disulfide 1-9; not fully specified, From the Ph.D.-C7C library; on phage; not shown: M13 pIII minor coat protein, peptide at its amino-terminus) [NASRTTL (SEQ ID NO: 48), displayed on M13 phage] | binds | – |
| CHALPAPDC (disulfide 1-9; not fully specified, From the Ph.D.-C7C library; on phage; not shown: M13 pIII minor coat protein, peptide at its amino-terminus) [HALPAPD (SEQ ID NO: 49), displayed on M13 phage] | binds | – |
| CTASSVKLC (disulfide 1-9; also: displayed on M13 phage, fused to pIII, From the Ph.D.-C7C library; on phage; not shown: M13 pIII minor coat protein, peptide at its amino-terminus) [TASSVKL (SEQ ID NO:5), displayed on M13 phage] | – | binding result [2]: binds |
| CSVSGSPSC (disulfide 1-9; also: displayed on M13 phage, fused to pIII, From the Ph.D.-C7C library; on phage; not shown: M13 pIII minor coat protein, peptide at its amino-terminus) [SVSGSPS (SEQ ID NO:6), displayed on M13 phage] | – | binding result [2]: binds |
| CSGSSPWHC (disulfide 1-9, From the Ph.D.-C7C library; on phage; not shown: M13 pIII minor coat protein, peptide at its amino-terminus) [SGSSPWH (SEQ ID NO:7), displayed on M13 phage] | – | binding result [2]: binds |
| CHPSSTHQC (disulfide 1-9; not fully specified, From the Ph.D.-C7C library; on phage; not shown: M13 pIII minor coat protein, peptide at its amino-terminus) [HPSSTHQ (SEQ ID NO:8), displayed on M13 phage] | – | binding result [2]: binds |
| CNLSSSWIC (disulfide 1-9, From the Ph.D.-C7C library; on phage; not shown: M13 pIII minor coat protein, peptide at its amino-terminus) [NLSSSWI (SEQ ID NO:9), displayed on M13 phage] | – | binding result [2]: binds |
